Data from US20120178682A1, “GB1 Peptidic Compounds and Methods for Making and Using the Same” (priority 2010, published 2012).
Changes are numbered by the printed parent chain. Numbers in names are those of the source. Values belong to the molecule of their own block, whether it stands above or below them.

Target: D-VEGF
Assay: SPR affinity measurements of GB1 peptidic compounds on immobilized D-VEGF
Assay type: binding
Conditions: for Kd / Koff / Kon: target D-VEGF; for effect of point mutation on affinity: notes to Table 5, relative to E01
Protocol: VEGF binding compounds were expressed. Binding affinities were measured using the […] SPR system. SPR analysis was performed on a ProteOn XPR36 Protein Interaction Array System (BioRad). Chemically synthesized L-VEGF, D-VEGF and VEGF165 (Peprotech) were immobilized in 50 mM Sodium Acetate (pH 5.5) to a non-dilute EDAC/sulfo-NHS activated GLC surface on separate channels using a flow rate of […] for 5 minutes in the vertical direction. Immobilization levels were monitored to ensure immobilization of approximately 500 response units of each protein. The domains were then stabilized with PBS for 30 seconds and 0.85% H3PO4 for 18 seconds each at […]. GB1 variants were diluted in PBS plus 0.05% Tween 20 at a starting concentration of 200 nM. The binders were further diluted with PBST 2-fold in series to produce 5 concentrations of variants. A PBST blank was also included. GB1 variant injection parameters were: […], 60 seconds contact time, and 600 seconds dissociation time, in the horizontal direction. VEGF proteins were regenerated with an injection of 0.85% H3PO4 at a flow rate of […] followed by a PBST wash of 30 seconds at […] flow rate.

[1] = Table 1, E01 point mutants expressed in E. coli
[2] = Table 2, GB1-E01 double mutants

Kd (Table 1): 7.8 nM
B1: E01-V31A: E01 point mutant V31A (protein)
chain: MKIEEHHHHHHHHHHGGSTYKLILNGKTLKGETTTEAVDVYDAFDVFFAYAASNFSDFDDWTYDDATKTFTVTEGGSDK
Koff (Table 1): 0.00194 s⁻¹
Kon [1]: 250000 M⁻¹ s⁻¹

Kd [2]: 5.4 nM
B2: E01-D39F/S35G: E01 double mutant D39F/S35G (protein)
chain: B1 chain with A49V, S53G, D57F
Koff [2]: 0.00193 s⁻¹
Kon [2]: 358000 M⁻¹ s⁻¹

Kd [2]: 1.14 nM
B3: E01-D39F/V22L: E01 double mutant D39F/V22L (protein)
chain: B1 chain with V40L, A49V, D57F
Koff [2]: 0.00082 s⁻¹
Kon [2]: 719000 M⁻¹ s⁻¹

Kd [2]: 2.83 nM
B4: E01-D39F/S38G: E01 double mutant D39F/S38G (protein)
chain: B1 chain with A49V, S56G, D57F
Koff [2]: 0.00131 s⁻¹
Kon [2]: 463000 M⁻¹ s⁻¹

Kd (Table 1): 11.1 nM
B5: E01-F40I: E01 point mutant F40I (protein)
chain: B1 chain with A49V, F58I
Koff (Table 1): 0.00441 s⁻¹
Kon [1]: 398000 M⁻¹ s⁻¹

Kd [2]: 4.49 nM
B6: E01-D39F/A34S: E01 double mutant D39F/A34S (protein)
chain: B1 chain with A49V, A52S, D57F
Koff [2]: 0.00174 s⁻¹
Kon [2]: 387000 M⁻¹ s⁻¹

Kd (Table 1): 8.79 nM
B7: E01-S35G: E01 point mutant S35G (protein)
chain: B1 chain with A49V, S53G
Koff (Table 1): 0.00348 s⁻¹
Kon [1]: 396000 M⁻¹ s⁻¹

Kd (Table 1): 13.7 nM
B8: E01-S38K: E01 point mutant S38K (protein)
chain: B1 chain with A49V, S56K
Koff (Table 1): 0.0028 s⁻¹
Kon [1]: 204000 M⁻¹ s⁻¹

Kd (Table 1): 67.5 nM
B9: E01-D41V: E01 point mutant D41V (protein)
chain: B1 chain with A49V, D59V
Koff (Table 1): 0.0333 s⁻¹
Kon [1]: 493000 M⁻¹ s⁻¹

Kd (Table 1): 7.8 nM
B10: E01-A34S: E01 point mutant A34S (protein)
chain: B1 chain with A49V, A52S
Koff (Table 1): 0.00278 s⁻¹
Kon [1]: 356000 M⁻¹ s⁻¹

Kd (Table 1): 5.8 nM
B11: E01-V22L: E01 point mutant V22L, His-tagged, expressed in E. coli (protein)
chain: B1 chain with V40L, A49V
Koff (Table 1): 0.00239 s⁻¹
Kon [1]: 411000 M⁻¹ s⁻¹
effect of point mutation on affinity: ^2 V22L point mutant increased affinity;

Kd (Table 1): 14.9 nM
B12: E01-D24G: E01 point mutant D24G (protein)
chain: B1 chain with D42G, A49V
Koff (Table 1): 0.00247 s⁻¹
Kon [1]: 166000 M⁻¹ s⁻¹

Kd (Table 1): 4.23 nM
Kd [2]: 3.48 nM
B13: E01-D39F: E01 point mutant D39F; scaffold for double mutants (protein)
chain: B1 chain with A49V, D57F
Koff (Table 1): 0.00213 s⁻¹
Kon [1]: 504000 M⁻¹ s⁻¹
Koff [2]: 0.00132 s⁻¹
Kon [2]: 380000 M⁻¹ s⁻¹
effect of point mutation on affinity: ^3 D39F point mutant increased affinity

Kd (Table 1): 7.47 nM
B14: E01-S35E: E01 point mutant S35E (protein)
chain: B1 chain with A49V, S53E
Koff (Table 1): 0.00304 s⁻¹
Kon [1]: 407000 M⁻¹ s⁻¹

Kd [2]: 2.99 nM
B15: E01-D39F/V31A: E01 double mutant D39F/V31A (protein)
chain: B1 chain with D57F
Koff [2]: 0.00167 s⁻¹
Kon [2]: 558000 M⁻¹ s⁻¹

Kd (Table 1): 9.6 nM
B16: E01-D27E: E01 point mutant D27E (protein)
chain: B1 chain with D45E, A49V
Koff (Table 1): 0.00333 s⁻¹
Kon [1]: 347000 M⁻¹ s⁻¹

Kd [2]: 3.1 nM
B17: E01-D39F/D27E: E01 double mutant D39F/D27E (protein)
chain: B1 chain with D45E, A49V, D57F
Koff [2]: 0.00158 s⁻¹
Kon [2]: 511000 M⁻¹ s⁻¹

Kd (Table 1): 9 nM
B18: E01-S38G: E01 point mutant S38G (protein)
chain: B1 chain with A49V, S56G
Koff (Table 1): 0.00387 s⁻¹
Kon [1]: 428000 M⁻¹ s⁻¹

Kd [2]: 4.52 nM
B19: E01-D39F/S35E: E01 double mutant D39F/S35E (protein)
chain: B1 chain with A49V, S53E, D57F
Koff [2]: 0.00205 s⁻¹
Kon [2]: 454000 M⁻¹ s⁻¹

Kd [2]: 5.35 nM
B20: E01-D39F/S35R: E01 double mutant D39F/S35R (protein)
chain: B1 chain with A49V, S53R, D57F
Koff [2]: 0.00183 s⁻¹
Kon [2]: 341000 M⁻¹ s⁻¹

Kd [2]: 2.29 nM
B21: E01-D39F/F40I: E01 double mutant D39F/F40I (protein)
chain: B1 chain with A49V, D57F, F58I
Koff [2]: 0.00138 s⁻¹
Kon [2]: 602000 M⁻¹ s⁻¹

Kd (Table 1): 9.3 nM
B22: E01-S35R: E01 point mutant S35R (protein)
chain: B1 chain with A49V, S53R
Koff (Table 1): 0.00258 s⁻¹
Kon [1]: 279000 M⁻¹ s⁻¹
